From patent US20020082384A1, “Process for folding chemically synthesized polypeptides” (priority 2000, published 2002)
One block for each molecule: values may come before it.

Assays:
fresh monocytes = assay: Migration across a polycarbonate filter in response to TARC (Imai method), monocytes; assay type: cell-based, human
Procedure: (§1) The biological activity of hu-TARC obtained by the methodology of the present invention was performed according to the Imai method (T. Imai et al., J. Biol. Chem., 271, 21514, 1996).
(§2) Human T cell lines, Hut78, Hut 102, and Jurkat, as well as fresh monocytes, neutrophils and lymphocytes were assessed for their migration across a polycarbonate filter in response to TARC.

neutrophils = assay: Migration across a polycarbonate filter in response to TARC (Imai method), neutrophils; assay type: cell-based, human
Procedure: as §1, §2

human lymphocytes = assay: Binding of 125I-labelled chemokine to human lymphocytes; settings: binding of 125I-labelled chemokine to human lymphocytes (FIG. 6)
Procedure: FIG. 6 is a graph of the comparison between the biological activity of recombinant I-309 and the synthetic, folded I-309 of the present invention. Biological activity was asses-sed by binding the chemokine, labelled with ^125I, to human lymphocytes.
Folding of the chemokine derivative purified byRP-HPLC was carried out by dissolving 65 mg of product in 60 ml of 0.6 M GuHCl, 10 mM NaHPO4 and 1 mM Tris at pH 8.0 and adding cysteine at a concentration of 100 fold molar excess with respect to the peptide. The polypeptide solution was left at 37° C. for 4 days. Complete cysteine pairing was checked by mass spectrometry after reaction with N-ethyhnaleimide (NEM). The yield of final folded chemokine was almost 25%.

B1: synthetic TARC: 71-residue human thymus and activation regulated chemokine, chemically synthesized as Cys10,11,34,50(S-t-Bu) derivative and folded with cysteine (peptide, UniProt Q92583 24-94, looked up)
C-C motif chemokine 17: ARGTNVGRECCLEYFKGAIPLRKLKTWYQTSEDCSRDAIVFVTVQGRAICSDPNNKRVKNAVKYLQSLERS
- chemotactic response (fresh monocytes): No chemotactic response
- chemotactic response (neutrophils): No chemotactic response

B2: recombinant TARC: recombinant thymus and activation regulated chemokine used as comparator (protein, UniProt Q92583 24-94, looked up)
C-C motif chemokine 17: B1 C-C motif chemokine 17
- chemotactic response (fresh monocytes): No chemotactic response
- chemotactic response (neutrophils): No chemotactic response

- biological activity compared with recombinant I-309 (human lymphocytes): equivalent to recombinant protein
B3: synthetic, folded, hu-I-309: human chemokine I-309, chemically synthesized with 6 S-t-Bu protected cysteines and folded with cysteine (peptide, UniProt P22362 24-96, looked up)
C-C motif chemokine 1: KSMQVPFSRCCFSFAEQEIPLRAILCYRNTSSICSNEGLIFKLKRGKEACALDTVGWVQRHRKMLRHCPSKRK
